# Measurements reported in US20170275356A1.
# Molecular target: human IL-23 (human) (UniProt P29460)
# Test: cell-based or functional assay
# human IL-23 (human), sequence (chain, as listed by the source limits assumed, chain 1 of 2): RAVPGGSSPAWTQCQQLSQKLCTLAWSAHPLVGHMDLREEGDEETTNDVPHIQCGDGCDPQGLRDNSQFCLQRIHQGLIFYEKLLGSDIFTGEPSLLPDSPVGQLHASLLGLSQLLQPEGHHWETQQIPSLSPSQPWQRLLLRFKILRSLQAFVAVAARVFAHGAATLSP
# human IL-23 (human), sequence (P29460 23-328 limits assumed, chain 2 of 2): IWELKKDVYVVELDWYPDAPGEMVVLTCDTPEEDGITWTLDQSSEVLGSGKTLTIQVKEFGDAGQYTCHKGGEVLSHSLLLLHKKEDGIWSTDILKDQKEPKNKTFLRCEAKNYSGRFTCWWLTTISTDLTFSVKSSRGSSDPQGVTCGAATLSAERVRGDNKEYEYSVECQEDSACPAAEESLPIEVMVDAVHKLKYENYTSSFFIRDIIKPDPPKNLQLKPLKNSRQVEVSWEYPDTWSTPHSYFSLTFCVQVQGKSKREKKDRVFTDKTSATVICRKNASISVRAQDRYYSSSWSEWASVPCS
substance,measurement,value
isotype control antibody,"Ct value, murine IL-17A mRNA in skin injected with human IL-23 (in vivo neutralization)",35.4 Ct
same,"Ct value, murine IL-17F mRNA in skin injected with human IL-23 (in vivo neutralization)",31.6 Ct
